From US20020004485A1
Blank lines part the entries; values can stand above or below the binder they belong to. Square brackets hold non-standard residues; d marks the D form. Ends that are not written are not given here. * marks the point of attachment. Benzoyl(3-OMe) = COc1cccc(C(=O)*)c1; Benzoyl(4-OMe) = COc1ccc(C(=O)*)cc1

Assays:
[1] = target: MC receptor endogenous to Xenopus laevis melanophores (Xenopus laevis); assay: cell-based or functional assay
[2] = target: MC receptor endogenous to Xenopus laevis melanophores (Xenopus laevis); assay: Schild plot; antagonism of α-MSH pigment dispersion in Xenopus melanophores (functional)
[3] = target: MC receptor endogenous to Xenopus laevis melanophores (Xenopus laevis); assay: Schild plot regression analysis, frog melanophores (functional)
[4] = target: MC receptor endogenous to Xenopus laevis melanophores (Xenopus laevis); assay: Schild regression; suppression of α-MSH-induced pigment dispersion in Xenopus melanophores (functional)

B1: p-Anisoyl-Arg-Tyr-Tyr-Arg-D-Trp-Lys-NH2 (peptide)
peptide: {Benzoyl(4-OMe)}-RYYR[dW]K-NH2
SMILES: COc1ccc(C(=O)N[C@@H](CCCNC(=N)N)C(=O)N[C@@H](Cc2ccc(O)cc2)C(=O)N[C@@H](Cc2ccc(O)cc2)C(=O)N[C@@H](CCCNC(=N)N)C(=O)N[C@H](Cc2c[nH]c3ccccc23)C(=O)N[C@@H](CCCCN)C(N)=O)cc1
- IC50 nM in Frog Melanophore Assay [1]: 175 nM

B2: SQW-10 (peptide)
peptide: {Benzoyl(3-OMe)}-RRIAPKL-NH2
SMILES: CC[C@H](C)[C@H](NC(=O)[C@H](CCCNC(=N)N)NC(=O)[C@H](CCCNC(=N)N)NC(=O)c1cccc(OC)c1)C(=O)N[C@@H](C)C(=O)N1CCC[C@H]1C(=O)N[C@@H](CCCCN)C(=O)N[C@@H](CC(C)C)C(N)=O
- MCR IC50 nM: antagonism of α-MSH (600 pM) darkening of frog melanophores [1]: 187 nM

B3: SQW-9 (peptide)
peptide: {Benzoyl(3-OMe)}-RRARPKL-NH2
SMILES: COc1cccc(C(=O)N[C@@H](CCCNC(=N)N)C(=O)N[C@@H](CCCNC(=N)N)C(=O)N[C@@H](C)C(=O)N[C@@H](CCCNC(=N)N)C(=O)N2CCC[C@H]2C(=O)N[C@@H](CCCCN)C(=O)N[C@@H](CC(C)C)C(N)=O)c1
- MCR IC50 nM: antagonism of α-MSH (600 pM) darkening of frog melanophores [1]: 155 nM

Binder: {Benzoyl(4-OMe)}-RRIRPK[dL]-NH2 [p-anisoyl-[D-Leu^12] dynorphin A(6-12)-NH2]
- MCR IC50 nM: antagonism of α-MSH (600 pM) darkening of frog melanophores [1]: 29 nM
- Ki [2]: 27 nM
- pKi [2]: 7.57

Binder: Ac-RYYRWK-NH2 [Ac-Arg-Tyr-Tyr-Arg-Trp-Lys-NH2]
- IC50 nM in Frog Melanophore Assay [1]: 1050 nM

B8: SQW-12 (peptide)
peptide: {Benzoyl(3-OMe)}-RRIRPAL-NH2
SMILES: CC[C@H](C)[C@H](NC(=O)[C@H](CCCNC(=N)N)NC(=O)[C@H](CCCNC(=N)N)NC(=O)c1cccc(OC)c1)C(=O)N[C@@H](CCCNC(=N)N)C(=O)N1CCC[C@H]1C(=O)N[C@@H](C)C(=O)N[C@@H](CC(C)C)C(N)=O
- MCR IC50 nM: antagonism of α-MSH (600 pM) darkening of frog melanophores [1]: 1600 nM

B9: SQW-11 (peptide)
peptide: {Benzoyl(3-OMe)}-RRIRAKL-NH2
SMILES: CC[C@H](C)[C@H](NC(=O)[C@H](CCCNC(=N)N)NC(=O)[C@H](CCCNC(=N)N)NC(=O)c1cccc(OC)c1)C(=O)N[C@@H](CCCNC(=N)N)C(=O)N[C@@H](C)C(=O)N[C@@H](CCCCN)C(=O)N[C@@H](CC(C)C)C(N)=O
- MCR IC50 nM: antagonism of α-MSH (600 pM) darkening of frog melanophores [1]: 188 nM

Results, then the binder that gave them:

- MCR IC50 nM: antagonism of α-MSH (600 pM) darkening of frog melanophores [1]: 62 nM
B4: SQW-13 (peptide)
peptide: {Benzoyl(3-OMe)}-RRIRPKA-NH2
SMILES: CC[C@H](C)[C@H](NC(=O)[C@H](CCCNC(=N)N)NC(=O)[C@H](CCCNC(=N)N)NC(=O)c1cccc(OC)c1)C(=O)N[C@@H](CCCNC(=N)N)C(=O)N1CCC[C@H]1C(=O)N[C@@H](CCCCN)C(=O)N[C@@H](C)C(N)=O

- IC50 nM in Frog Melanophore Assay [1]: 867 nM
B5: Ac-Arg-Tyr-Tyr-Arg-D-Trp-Lys-NH2 (peptide)
peptide: Ac-RYYR[dW]K-NH2
SMILES: CC(=O)N[C@@H](CCCNC(=N)N)C(=O)N[C@@H](Cc1ccc(O)cc1)C(=O)N[C@@H](Cc1ccc(O)cc1)C(=O)N[C@@H](CCCNC(=N)N)C(=O)N[C@H](Cc1c[nH]c2ccccc12)C(=O)N[C@@H](CCCCN)C(N)=O

- EC50 of α-MSH in frog melanophores in the presence of 30 nM ARP fragment [1]: 19 nM
- Ki [3]: 0.21 nM
- Ki [4]: 0.7 nM
B6: human agouti-related protein fragment ARP-(83-132)-NH2 (peptide)
peptide: SSRRCVRLHESCLGQQVPCCDPCATCYCRFFNAFCYCRKLGTAMNPCSRT-NH2
modifications: disulfide (positions not given here); not fully specified (bridges); also: five disulfides among the 10 Cys, arrangement undetermined

- MCR IC50 nM: antagonism of α-MSH (600 pM) darkening of frog melanophores [1]: 75 nM
B7: SQW-8 (peptide)
peptide: {Benzoyl(3-OMe)}-RAIRPKL-NH2
SMILES: CC[C@H](C)[C@H](NC(=O)[C@H](C)NC(=O)[C@H](CCCNC(=N)N)NC(=O)c1cccc(OC)c1)C(=O)N[C@@H](CCCNC(=N)N)C(=O)N1CCC[C@H]1C(=O)N[C@@H](CCCCN)C(=O)N[C@@H](CC(C)C)C(N)=O
